Consider three substances from patent publication US20130202593A1.

For experiment [1], the target named is IgG. The experiment is described as follows: steady-state fluorescence titration (quenching of TRIM21 tryptophan fluorescence on titration of IgG).
In experiment [2] the target is IgG. As to the kind of experiment: fluorescence titration spectroscopy.
Experiment [3] deals with recombinant full-length TRIM21 (human) (UniProt P19474). As to the kind of experiment: steady-state fluorescence titration: quenching of intrinsic TRIM21 tryptophan fluorescence on titration of IgG.
Experiment [4] has as its target ΔRING-ΔBOX TRIM21 (human) (UniProt P19474). Described as above.

For the substance “recombinant full-length TRIM21 (from UniProt P19474 1-475) (receptor)”, the Kd is 0.6 nM with IgG [1] and less than 1 nM in the experiment with IgG [2].
For “ΔRING-ΔBOX TRIM21 (from UniProt P19474 129-475) (receptor)”, the figures for the Kd in the experiment with IgG [1] and in the experiment with IgG [2] were 0.9 nM and less than 1 nM, respectively.
For the substance IgG (antibody), the 50% effective concentration (EC50 (read off the curve)) turned out to be 1 nM in experiment [3] and 3 nM in experiment [4].

As usually defined, the Kd is the equilibrium constant for the complex coming apart. Higher therefore signals a looser complex. Usually EC50 (read off the curve) stands for the concentration needed to bring the measured effect to its halfway point.
